Blank lines part the entries; values can stand above or below the molecule they belong to.
B1: SpoIIIJ-His6 (natural protein, Bacillus subtilis, UniProt Q01625 23-261, looked up)
chain: CSSVKEPITADSPHFWDKYVVYPLSELITYVAKLTGDNYGLSIILVTILIRLLILPLMIKQLRSSKAMQALQPEMQKLKEKYSSKDQKTQQKLQQETMALFQKHGVNPLAGCFPILIQMPILIGFYHAIMRTQAISEHSFLWFDLGEKDPYYILPIVAGVATFVQQKLMMAGNAQQNPQMAMMLWIMPIMIIVFAINFPAALSLYWVVGNLFMIAQTFLIKGPDIKKNPEPQKAGGKKK
modifications: Cys23 of the lipoprotein-type signal peptide is modified during insertion of the protein into the membrane
notes: SpoIIIJ, membrane protein insertase of the YidC/Oxa1/Alb3 family, Bacillus subtilis; calculated mass 27 kDa; Purified protein is a mixture of monomers and dimers; it also holds proteolytic products starting at L122; also called full-length mature SpoIIIJ-His6; SpoIIIJ^wt-His6; source: E. coli C43(DE3) bearing pMS266, membrane fraction solubilised with 2% DDM, purified (Ni2+-NTA); not shown: His6, …
B2: truncated SpoIIIJ-His6 starting at L122 (fragment "c", lacking TM1) (domain or fragment, Bacillus subtilis, UniProt Q01625 122-261, looked up)
chain: LFQKHGVNPLAGCFPILIQMPILIGFYHAIMRTQAISEHSFLWFDLGEKDPYYILPIVAGVATFVQQKLMMAGNAQQNPQMAMMLWIMPIMIIVFAINFPAALSLYWVVGNLFMIAQTFLIKGPDIKKNPEPQKAGGKKK
notes: SpoIIIJ, Bacillus subtilis; about 16 kDa product of cleavage at L122 in the cytoplasmic loop between TM1 and TM2: the rest of that loop to the end of the protein (includes TM2 with Cys134); Two species of about 15 kDa both start at L122; The cause of their different mobility is not known; also called band c; truncated SpoIIIJ monomer (lacking TM1); source: E. coli C43(DE3), proteolytic product …

How the values were obtained:
[1] = target: SpoIIIJ^C134A-His6 (Bacillus subtilis) (UniProt Q01625); test: SEC; Superose 12 HR 10/30; 20 mM Tris-HCl pH 7.6, 10% glycerol, 0.5 M NaCl, 0.1% DDM, 100 mM imidazole; fractions immunoblotted; peak areas estimated with ImageJ
[2] = target: the molecule itself; test: SDS-PAGE with or without reducing agent; purified protein in loading buffer with (100 mM) or without DTT; Coomassie staining or immunoblot with anti-His6; bands a and b cut out and run again
[3] = target: the molecule itself; test: SEC; Superose 12 HR 10/30; 20 mM Tris-HCl pH 7.6, 10% glycerol, 0.5 M NaCl, 0.1% DDM, 100 mM imidazole; fractions immunoblotted; peak areas estimated with ImageJ
[4] = target: B1; test: SDS-PAGE with or without reducing agent; purified protein in loading buffer with (100 mM) or without DTT; Coomassie staining or immunoblot with anti-His6; bands a and b cut out and run again; details: both partners purified

ratio of peak areas B (monomer size) to A (dimer size) (peak B : peak A) [1]: 0.4
Molecule: SpoIIIJ^C134A-His6 (from UniProt Q01625 23-261) (natural protein)

Molecule: B1
stoichiometry N [2]: 2 | ratio of peak areas B (monomer size) to A (dimer size) [3]: 0.111 peak B : peak A | stoichiometry N [3]: ~2

Molecule: B2
binding result [4]: binds

From paper PMC4136701, “A Conserved Cysteine Residue of Bacillus subtilis SpoIIIJ Is Important for Endospore Development” (PLoS ONE, 2014)
